From the supplement of paper PMC9170038

Test system: MS2 coat protein
Experiment: apparent KD of MS2 coat protein; designed switch direction (-1 OFF switch, 1 ON switch): 1; higher = weaker reporter binding
Outline: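 Designed RNA switches with common flanks were transcribed on Illumina chips by stalled E. coli RNA polymerase and titrated with SNAP-549-labelled MS2 coat protein, from 0.7 or 1.5 nM doubling to 3 µM, in Tris-HCl pH 7.5 buffer with KCl, MgCl2, BSA, DTT, tRNA and Tween-20. Steps lasted 0.8–1.5 h (lowest) to 10–20 min (highest). Titrations ran without input, with 200 uM small-molecule ligand, or with an oligonucleotide input. Normalised cluster fluorescence was curve-fitted, and apparent KD is the per-design median over clusters.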

[1] = input ligand: microRNA oligo, concentration not stated
[2] = Eterna round: R95, input ligand: FMN 200 uM
[3] = Eterna round: R95, input ligand: microRNA oligo, concentration not stated
[4] = Eterna round: R95, input ligand: none

Row | Sequence | apparent KD of MS2 coat protein (input ligand: FMN 200 uM) | apparent KD of MS2 coat protein [1] | apparent KD of MS2 coat protein (input ligand: none) | apparent KD of MS2 coat protein [2] | apparent KD of MS2 coat protein [3] | apparent KD of MS2 coat protein [4]
1 | AACGUGUAGGAAGGAUAUAUUGUUCAAGGGAUUGCAAUCUCUAACAUGAGGAUCACCCAUGUAGAGUAGAAGGUCCACCGCAGG [Eternabot solution 40] (Eterna round: R96, puzzle: Same State NG 2) | 14.1 nM | 13.5 nM | 19.2 nM | – | – | –
2 | AAGUAACAUGAGGAUCACCCAUGUGAGGUGAGCGUAGGAUAUCGAGGAGGAAGGGUAGGUCGAGAAGGACGAGAAG [JR_SS1_Sub096] (puzzle: Same State 1) | – | – | – | 127 nM | 162 nM | 247 nM
3 | AAGUUAAGCUUUUUGUUCUGCCUAUUCUAACAUGAGGAUCACCCAUGUAGUCAGACGACUGCGUGUGUAGUUGAGAU [JR_SHM208A_Sub029] (puzzle: Sensor for hsa-mir-208a) | – | – | – | 121 nM | 194 nM | 111 nM
4 | AAUAACAAUUUAGGAUAUCGACAGCGAAACUCACGAGAAGGAGAUAAGAGGCUGGCCUCGCGCACAUGAGGAUCACCCAUGUCG [Eternabot solution 25] (Eterna round: R96, puzzle: Same State NG 1) | 38.1 nM | 29.8 nM | 41.1 nM | – | – | –
5 | AAUCAACGCCGAGGAUAUCGGCCUACAUGAGGAUCACCCAUGUUGGGACAUAAAUUAAUCUCGGCUGAGAAGGCGGGAGUUGAC [Eternabot solution 38] (Eterna round: R96, puzzle: Same State NG 2) | 23 nM | 13.3 nM | 19.9 nM | – | – | –
6 | AAUUAAGAUCAAGGAUAUCACGUCGAUUAGACGUGAGAAGGUGAUCAUAACAUGAGGAUCACCCAUGUAUUACAUGAAUUAAUU [SSNG1/2-B2] (Eterna round: R96, puzzle: Same State NG 1) | 85.7 nM | 330 nM | 397 nM | – | – | –
7 | AAUUUAAUACAUGAGGAUCACCCAUGUAAUACUUGUAAGAUCAAGGAUAUCAGCUCGAAUAGAGCUGAGAAGGUGAUCACAUGU [SSNG3/19-D1] (Eterna round: R96, puzzle: Same State NG 3) | – | 24.9 nM | – | – | – | –
8 | ACAAGCUUUUUAGGAAGUGAAGGGAGGGAACAUGAGGAUCACCCAUGUAAGUGGAAUGAAGAAGGAGCACGUCUUAU [JR_SHM208A_Sub097] (puzzle: Sensor for hsa-mir-208a) | – | – | – | 32.7 nM | 26.6 nM | 43.1 nM
9 | ACAUGACAUGAGGAUCACCCAUGUCGAUAAAAGCAAGGAUAUGGGCCCGAGUCGUUCGGACCAGAAGGUGCGUCUC [Orso] (Eterna round: R96, puzzle: Same State 1) | 18.3 nM | 16.3 nM | 23.8 nM | – | – | –
10 | ACAUGAGACAGAGGAUAUGUUGUACCUACAUGUGACAUGAGGAUCACCCAUGUGGUAAGUAUGAUACAGAAGGCUGAGAUAUGU [Equivalance 64 - Jieux - Same State NG 2] (Eterna round: R96, puzzle: Same State NG 2) | 15 nM | 18.3 nM | 24.2 nM | – | – | –
11 | ACAUGAGAUUGAGGAUAUAUUGUACCUACAUGUGACAUGAGGAUCACCCAUGUGGUAAGUAUGACAUAGAAGGCAAAGAUAUGU [Equivalance 81 - Jieux - Same State NG 2] (Eterna round: R96, puzzle: Same State NG 2) | 87.1 nM | 54.1 nM | 74.4 nM | – | – | –
12 | ACAUGAGGAUCACCCAUGUGAAAAGACCUAGAGGUGAAGCCGCAGGAUAUAUCACAAACGAGAAGAUAGAAGGGCGUACGCAUG [Eternabot solution 9] (Eterna round: R96, puzzle: Same State NG 3) | 89.7 nM | 60.5 nM | 72.1 nM | – | – | –
13 | ACAUUUAGCUCGUGCACAUGAGGAUCACCCAUGUUCAGUUCACAGGAUAUCUAGUCAAACGGAUCGGAGAAGGGUGGCAGGAGC [Quceon] (Eterna round: R96, puzzle: Same State NG 3) | 39.9 nM | 121 nM | 123 nM | – | – | –
14 | ACGCAAAAUGGAGGAUAUGGAGCCUUAUUGGCUCCAGAAGGUCAAAACAUGAGGAUCACCCAUGUGCGGUGGUCUAAUGACCAC [Eli NG1ss - 46] (Eterna round: R96, puzzle: Same State NG 1) | 41.5 nM | 109 nM | 172 nM | – | – | –
15 | ACGCAGCUGGGUGAGGAUAUCGGUGGUAAAACAUGAGGAUCACCCAUGUCCGAAGCUCGGACUUCCGAGAAGGCGCCCGGCCGCA [Atbeatve] (puzzle: Same State 2) | – | – | – | 14.6 nM | 65.2 nM | 83.1 nM
16 | ACGUGGGUAUCACAGGAUAUACUCAUAACUACAUGAGGAUCACCCAUGUAGCGGUAUUCCGGUGCGUAGAAGGGUGAUGGACCAC [Same State 2 - Mod of Artece] (puzzle: Same State 2) | – | – | – | 13.3 nM | 11.6 nM | 19.9 nM
17 | ACUAUUAAUGCAGGAUAUGAUUAACAUGAGGAUCACCCAUGUGGUGUUGUGAGUAAGGAGAGUGAUCAGAAGGGCAUUUUUUUU [JMF's solution 37] (Eterna round: R96, puzzle: Same State NG 2) | 992 nM | 466 nM | 629 nM | – | – | –
18 | ACUUAGUACAAUUUAGAUCUACAUGAGGAUCACCCAUGUACUGAGGAUAUCAGCUCGUUUAGAGCUGAGAAGGCAGUAGUACUA [SSNG3/9-A3] (Eterna round: R96, puzzle: Same State NG 3) | 46.7 nM | 26.2 nM | 61.9 nM | – | – | –
19 | ACUUGCUUUUUGCUCGUAUAUUGUCCGUUACAUGAGGAUCACCCAUGUGUAUAUUAUGUGUUGUUUUUGAUACGUGU [JR_SHM208A_Sub069] (puzzle: Sensor for hsa-mir-208a) | – | – | – | 36.2 nM | 33.9 nM | 43.7 nM
20 | AGAAAACAUGAGGAUCACCCAUGUAGAAAUAUGGGAGGAUAUACAAAGACGAAAGUCAGAGUAGAAGGCCUAAAAA [salish99-SS1-085] (Eterna round: R96, puzzle: Same State 1) | – | 46.6 nM | – | – | – | –
21 | AGAAAAGUUUACGAGGAUAUGUUCCGCAUAACAUGAGGAUCACCCAUGUGAACAAGAAAGGCGACGCAGAAGGCGUGAGCAAAAG [Mat - Same State 2 - Mod of UCT - D98] (puzzle: Same State 2) | – | – | – | 38.8 nM | 82.1 nM | 116 nM
